Series [1] concerns the target T1, StpA-CTD (Escherichia coli, UniProt P0ACG1 90-134).
T1 chain: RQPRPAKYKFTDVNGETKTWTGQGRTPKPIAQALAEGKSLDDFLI
Description: ITC; 25 C; n=1.69; 50 mM BisTris, 25 mM NaCl, pH 6.4; ITC at 5 and 25 C (40 uM RNA in cell, StpA-CTD 400/800/920 uM injected); NMR with 10% D2O, titration at 25 C. The settings on record: protein: recombinant; tags: none (His6-SUMOstar removed by SUMO protease); chain copies: 2; hairpin (5'-fold). In general terms: In ITC the heat of successive injections is recorded.

For series [2], the target named is T1, StpA-CTD. Description: ITC; 5 C; n=1.74; 50 mM BisTris, 25 mM NaCl, pH 6.4; ITC at 5 and 25 C (40 uM RNA in cell, StpA-CTD 400/800/920 uM injected); NMR with 10% D2O, titration at 25 C. Conditions: protein: recombinant; tags: none (His6-SUMOstar removed by SUMO protease); chain copies: 2; hairpin (5'-fold).
The target in series [3] is T1, StpA-CTD. Description: ITC; 25 C; n=1.93; 50 mM BisTris, 25 mM NaCl, pH 6.4; ITC at 5 and 25 C (40 uM RNA in cell, StpA-CTD 400/800/920 uM injected); NMR with 10% D2O, titration at 25 C. The settings on record: protein: recombinant; tags: none (His6-SUMOstar removed by SUMO protease); chain copies: 2.
Series [4] concerns the target T1, StpA-CTD. Description: ITC; 5 C; n=1.84; 50 mM BisTris, 25 mM NaCl, pH 6.4; ITC at 5 and 25 C (40 uM RNA in cell, StpA-CTD 400/800/920 uM injected); NMR with 10% D2O, titration at 25 C. Conditions: protein: recombinant; tags: none (His6-SUMOstar removed by SUMO protease); chain copies: 2.
The target in series [5] is T1, StpA-CTD. Description: ITC; 5 C; n=1.93; 50 mM BisTris, 25 mM NaCl, pH 6.4; ITC at 5 and 25 C (40 uM RNA in cell, StpA-CTD 400/800/920 uM injected); NMR with 10% D2O, titration at 25 C. Conditions: protein: recombinant; tags: none (His6-SUMOstar removed by SUMO protease); chain copies: 2; hairpin, locked 5'-fold.
Series [6] has as its target T1, StpA-CTD. Description: ITC; 25 C; n=1.80; 50 mM BisTris, 25 mM NaCl, pH 6.4; ITC at 5 and 25 C (40 uM RNA in cell, StpA-CTD 400/800/920 uM injected); NMR with 10% D2O, titration at 25 C. Conditions: protein: recombinant; tags: none (His6-SUMOstar removed by SUMO protease); chain copies: 2; hairpin, locked 5'-fold.
The target in series [7] is T1, StpA-CTD. Briefly: ITC; 25 C; n=2.33; 50 mM BisTris, 25 mM NaCl, pH 6.4; ITC at 5 and 25 C (40 uM RNA in cell, StpA-CTD 400/800/920 uM injected); NMR with 10% D2O, titration at 25 C. Conditions: protein: recombinant; tags: none (His6-SUMOstar removed by SUMO protease); chain copies: 2; hairpin, locked 3'-fold.
In series [8] the target is T1, StpA-CTD. Description: ITC; 5 C; n=2.21; 50 mM BisTris, 25 mM NaCl, pH 6.4; ITC at 5 and 25 C (40 uM RNA in cell, StpA-CTD 400/800/920 uM injected); NMR with 10% D2O, titration at 25 C. The settings on record: protein: recombinant; tags: none (His6-SUMOstar removed by SUMO protease); chain copies: 2; hairpin, locked 3'-fold.
The target of series [9] is T1, StpA-CTD. Description: ITC; 5 C; n=1.78; 50 mM BisTris, 25 mM NaCl, pH 6.4; ITC at 5 and 25 C (40 uM RNA in cell, StpA-CTD 400/800/920 uM injected); NMR with 10% D2O, titration at 25 C. The settings on record: protein: recombinant; tags: none (His6-SUMOstar removed by SUMO protease); chain copies: 2; hairpin (3'-fold), 1 nt 5' overhang.
Series [10] concerns the target T1, StpA-CTD. Briefly: ITC; 25 C; n=1.74; 50 mM BisTris, 25 mM NaCl, pH 6.4; ITC at 5 and 25 C (40 uM RNA in cell, StpA-CTD 400/800/920 uM injected); NMR with 10% D2O, titration at 25 C. Conditions: protein: recombinant; tags: none (His6-SUMOstar removed by SUMO protease); chain copies: 2; hairpin (3'-fold), 1 nt 5' overhang.

Drawing on paper PMC8565331, “The RNA chaperone StpA enables fast RNA refolding by destabilization of mutually exclusive base pairs within competing secondary structure elements”, this text covers Kd for five molecules.

Usually Kd stands for a measure of binding affinity in units of concentration.

GACCGGAAGGUCC (structured_RNA) [5'-HP]: the Kd in the series with StpA-CTD [1] was found to be 24.7 ± 0.6 µM; with StpA-CTD [2] it was 13.3 ± 3.7 µM.

On to GACCGGAAGGUCCGCCUUCC (structured_RNA) [bistable 20mer RNA], for which the values for the equilibrium dissociation constant (Kd) with StpA-CTD [3] and with StpA-CTD [4] were 12.3 ± 1.7 µM and 9.4 ± 1.3 µM, respectively.

For GACCGGAAGGUCCGCCUUCC (structured_RNA, N1-methylguanosine at G6) [G6-m1G], the values for the Kd in the series with StpA-CTD [5] and with StpA-CTD [6] were 16.3 ± 0.7 µM and 17.5 ± 1.3 µM, respectively.

Take GACCGGAAGGUCCGCCUUCC (structured_RNA, N6-dimethyladenosine at A2) [A2-DMA]: the results for the Kd with StpA-CTD [7] and in the series with StpA-CTD [8] were 13.6 ± 1.6 µM and 8.31 ± 0.8 µM, respectively.

Take CGGAAGGUCCGCCUUCC (structured_RNA) [3'-HP]: the dissociation constant Kd in the series with StpA-CTD [9] came to 11.3 ± 1.4 µM; in the series with StpA-CTD [10], 16.1 ± 2.6 µM.
